The text below walks through data of publication PMC3905869.

The target in one data set is T1, VirB core (HTH domain) (Shigella flexneri, UniProt P0A247 129-250).
T1 sequence: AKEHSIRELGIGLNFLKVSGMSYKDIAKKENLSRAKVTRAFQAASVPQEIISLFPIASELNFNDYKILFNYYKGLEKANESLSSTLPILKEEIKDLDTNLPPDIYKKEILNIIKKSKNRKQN
Nature of the data set: fluorescence anisotropy.

Data set [1] deals with T2, VirB delta C (Shigella flexneri, UniProt P0A247 1-250).
T2 sequence: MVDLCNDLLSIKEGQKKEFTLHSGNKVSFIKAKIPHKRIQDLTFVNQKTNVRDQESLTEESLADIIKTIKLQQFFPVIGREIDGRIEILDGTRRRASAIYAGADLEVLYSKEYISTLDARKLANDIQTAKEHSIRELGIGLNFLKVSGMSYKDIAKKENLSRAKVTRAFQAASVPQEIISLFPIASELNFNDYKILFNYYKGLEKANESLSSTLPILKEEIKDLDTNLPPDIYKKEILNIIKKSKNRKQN
Nature of the data set: fluorescence anisotropy. For orientation: In fluorescence polarisation assays a small probe gives low polarisation when free and higher when bound to something large.

Data set [2] addresses T3, VirB FL (Shigella flexneri, UniProt P0A247 1-309).
T3 sequence: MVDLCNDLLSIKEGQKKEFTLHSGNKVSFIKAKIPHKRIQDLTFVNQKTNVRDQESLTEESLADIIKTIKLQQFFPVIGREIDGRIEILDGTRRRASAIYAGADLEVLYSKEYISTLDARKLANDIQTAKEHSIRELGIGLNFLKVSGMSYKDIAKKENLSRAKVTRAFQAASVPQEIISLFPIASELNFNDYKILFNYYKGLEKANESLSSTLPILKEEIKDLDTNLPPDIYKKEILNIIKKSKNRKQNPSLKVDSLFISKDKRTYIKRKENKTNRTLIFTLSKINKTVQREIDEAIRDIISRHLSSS
Nature of the data set: fluorescence anisotropy.

The target in data set [3] is T4, VirB delta N (Shigella flexneri, UniProt P0A247 129-309).
T4 sequence: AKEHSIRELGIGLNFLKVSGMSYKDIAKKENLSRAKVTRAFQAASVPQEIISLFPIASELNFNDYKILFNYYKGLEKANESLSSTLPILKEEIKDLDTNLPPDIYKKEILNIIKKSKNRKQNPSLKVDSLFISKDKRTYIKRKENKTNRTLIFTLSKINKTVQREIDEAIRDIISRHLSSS
Nature of the data set: fluorescence anisotropy.

Data set [4] has as its target T2, VirB delta C. Nature of the data set: EMSA with self-competition. For orientation: A gel shift assay detects complexes by their altered migration in electrophoresis.
The target of data set [5] is T3, VirB FL. Nature of the data set: EMSA with self-competition.
For data set [6], the target named is T4, VirB delta N. Nature of the data set: EMSA with self-competition.
Data set [7] has as its target T2, VirB delta C. Nature of the data set: competition.

B1: FAM-icsB-wt-50bp (dsDNA)
DNA 1: CTCGTTTCATCATGAAATCCCACAAGATAAAGTGCCTGATGTATCAGGCT
DNA 2: AGCCTGATACATCAGGCACTTTATCTTGTGGGATTTCATGATGAAACGAG
For B1, the Kd with VirB core (HTH domain) came to 0.016 ± 0.003 µM; with VirB delta C [1], 0.139 ± 0.015 µM; with VirB FL [2], 0.011 ± 0.0003 µM; with VirB delta N [3], 0.012 ± 0.0003 µM.

B2: icsB-wt (dsDNA)
DNA 1: AAACTCGTTTCATCATGAAATCCCAC
DNA 2: GTGGGATTTCATGATGAAACGAGTTT
Turning to B2, the binding result with VirB delta C [4], with VirB FL [5] and with VirB delta N [6] was “binds” each time.

B3: icsB-mut (dsDNA)
DNA 1: AAACTCGTTTCATCGCTGGGCCCCAC
DNA 2: GTGGGGCCCAGCGATGAAACGAGTTT
Turning to B3, in the data set with VirB delta C [7], the binding result is “no binding”.

Broadly, the Kd is the free concentration of one partner at which half of the binding sites on the other are occupied at equilibrium, for simple one-to-one binding.
